Entries after “also recorded” stand apart in the source; their conditions may differ. Where two headings read alike, the source gives them in different places. No end group written: not given here.
Assays:
[1] = incubated with intercellular plant fluid of potato; cited from earlier work
[2] = incubated with intercellular plant fluid of rice; cited from earlier work
[3] = test system: X. pelargonii strain CHSC; settings: in vivo
R. solanacearum = format: in vivo; settings: sweet pepper leaves, transient expression from pIPG780, 48 hrs after challenge
X. pelargonii = settings: in vivo
[4] = test system: X. pelargonii strain CHSC; test: Pathogen challenge of transgenic geranium; format: in vivo
Procedure: Following inoculation, plants were held at 32° C. The circled region was cut out, and contained ca. 10^5 cfu/cm^2 live X. pelargonii cells (for details, refer Example 11 below). Photo taken four weeks after inoculation.
Following inoculation, plants were held at 32° C. […] Photo taken four weeks after inoculation.
Cell counts were taken daily for nine days by removing circular sections totaling 1 square centimeter (cm^2) using a cork borer from three inoculated leaves in the area most likely to contain pathogen cells (refer FIGS. 1 and 2). These leaf sections were macerated with a mortar and pestle and 1 milliliter of buffer, diluted using a 1:10 dilution series and 10 microliter drops placed on solid growth medium for counting. […] These plants were both immune to X. pelargonii infection, and rapidly brought the artificially inoculated pathogen population to extinction.
Inoculations were performed using liquid culture grown X. pelargonii cells, sprayed on the leaves at a concentration of 10^7 colony forming units per milliliter (cfu/ml) each. X. pelargonii was also inoculated using scissors dipped in 10^9 cfu/ml of cells to clip the leaves in several places on the same plants that were sprayed. Following X. pelargonii inoculation, plants were held at 32° C. to encourage pathogen growth and symptom development. Four weeks after inoculation, photographs were taken of both nontransgenic geranium variety “Avenida” inoculated with X. pelargonii (FIG. 1) and transgenic geranium of the same variety “Avenida” expressing BombBC inoculated with X. pelargonii (FIG. 2), and circular sections totaling 1 square centimeter (cm^2) were removed using a cork borer from three inoculated leaves in the area most likely to contain pathogen cells (refer FIGS. 1 and 2). Consistently, 10^5 cfu/ml of X. pelargonii was recovered from nontransgenic geranium variety “Avenida” plants at four weeks after inoculation (FIG. 3), and symptoms progressed systemically until the entire plant was dead, usually by 12 weeks after inoculation. […] These plants were immune to X. pelargonii infection.

[5] = test system: R. solanacearum strain Rsp673; format: in vivo; settings: transgenic geranium Avenida
[6] = test system: R. solanacearum strain Rsp446; format: in vivo; settings: after 68 days
[7] = test system: Ca. Liberibacter asiaticus; format: in vivo; settings: transgenic tobacco Xanthi, same on retest three weeks later
E. coli ER2566 [8] = format: cell-based; settings: for bacterial stasis induced by expression: berberine chloride 250 ug/ml, 0.25 mM IPTG, 20 hrs of induction
E. coli ER2566 [9] = format: cell-based
[10] = test system: purified LPS extracted from X. campestris pv. pelargonii, X. citri, Rhizobium leguminosarum and Ralstonia solanacearum; format: biochemical; settings: 5 ug purified protein, room temperature, 2 hours
[11] = test system: LPS of X. campestris pv. pelargonii, X. citri, Rhizobium leguminosarum and Ralstonia solanacearum; format: binding; settings: treated LPS lanes, Western blot
[12] = test system: rice (Oryza sativa japonica) cv. TP309; test: Stable transformation of rice, effect on the plant; settings: stable transformation with pIPG787
[13] = test system: Nicotiana tabaccum cv. Xanthi; test: Stable transformation of tobacco, effect on the plant; settings: stable transformation with pIPG786
[14] = test system: geranium (Pelargonium X hortorum) cv. Avenida; test: Stable transformation of geranium, effect on the plant; settings: stable transformation with pIPG787
[15] = test system: E. coli strains ADA410 P3rpoH::lacZ reporter (LPS or outer membrane damage); test: P3rpoH::lacZ reporter, purified protein droplets on ADA410 cells on X-gal agar; settings: ten microliter droplets of purified protein, 24 hr
[16] = Exp. 1, cutting (T0), inoculum 5 × 10^7 cfu/ml
[17] = Exp. 2, cutting (T0), inoculum 1 × 10^8 cfu/ml

For “cecropin B: linear lytic peptide rapidly degraded by plant proteases (KWKVFKKIEKMGRNIRNGIVKAGPAIAVLGEAKAL; ends and bridges not checked; UniProt P01508 27-61, looked up)”, the half-life [1] is given as “about three” and the half-life [2] is given as “about 25 hours”.

B1: BombBC: Bacteriophage Outer Membrane Breaching protein of Xanthomonas phage P15 (Xp15) ORF BC, 17.9 kD, SEQ ID NO. 17 (protein, listed as Xanthomonas campestris)
chain: MSDQTDTTQTTPAEKAPPKEIIRGRMPIAVVALARFGSQSTTTTKAAADALGTTVGKIDDIRKNRNFAYVTADFKPTEAQKADGIEWLKRHPVGADALIEELQNLPVATAEESAAFEQVRASARGQNAKTAEGEVAQAGGGNRRKKKEKPAEAGEVQNPPAADGDSLLS
With B1 the “HR symptoms elicited by X. pelargonii” value [3] was “abolished”, the “HR symptoms elicited by R. solanacearum” value (R. solanacearum) was “abolished” and the “drop in the number of colony forming units vs. control leaves” value (X. pelargonii) was 100 ×. The “pathogenic symptoms caused by X. pelargonii” value (X. pelargonii) was “greatly reduced”, the “resistance status to X. pelargonii infection” value ([4]; transgenic geranium Avenida) was “immune” and the “X. pelargonii cells in cut out leaf region” value ([4]; transgenic geranium Avenida leaf, four weeks after inoculation) was “no detected X. pelargonii cells”. For the same molecule, the “symptoms of geranium blight” value ([4]; transgenic geranium Avenida, 32° C.) was “no evidence of symptoms”, the “living X. pelargonii cells recovered” value ([4]; transgenic geranium Avenida, after five days following inoculation) was “no living X. pelargonii cells were recovered” and the “symptom development of bacterial wilt” value ([5]; syringe infiltration and soil inoculation, 32° C.) was “failed to progress past the leaf area where the pathogen was directly infiltrated; also recorded: No symptom development, other than that which initially developed in, and stayed restricted to, the region of inoculation”. For the same molecule, the “detected R. solanacearum cells” value ([5]; twelve weeks after inoculation) was “no detected R. solanacearum cells”, the “number of survivors/total tested” value [6, 16] was 10/15 and the per cent survivors [6, 16] was “(63%)”. For the same molecule, the “number of survivors/total tested” value [6, 17] was 9/20, the per cent survivors [6, 17] was “(45%)” and the “number of survivors/total tested” value ([6]; Exp. 3, seeded (T1), inoculum 2 × 10^8 cfu/ml) was 0/21. The “plants symptomatic for greening” value ([7]; 4 weeks connected to dodder) was “neither of the two”, the “plants PCR positive for greening” value ([7]; nested PCR) was “neither were PCR positive” and the “bacterial stasis induced by expression” value (E. coli ER2566 [8]) was “clearly induced”. The “activity of expression clone (growth in presence of berberine chloride)” value (“activity of expression clone” below) (E. coli ER2566 [9]) was “Active”, the “degradation of LPS” value [10] was “enzymatically degrades LPS” and the “attachment to LPS” value [11] was “attached to the degraded LPS of all species tested”. The “detrimental effect on rice plants” value [12] was “not detrimental”, the “detrimental effect on tobacco plants” value [13] was “not detrimental” and the “detrimental effect on geranium plants” value [14] was “not detrimental”. For the same molecule, the “blue color around ADA410 cells (P3rpoH::lacZ activation)” value [15] was “Blue color slowly developed and intensified”.

B2: D1: BombBC deletion, aa26-169 of BC, SEQ ID 6 (protein)
chain: MPIAVVALARFGSQSTTTTKAAADALGTTVGKIDDIRKNRNFAYVTADFKPTEAQKADGIEWLKRHPVGADALIEELQNLPVATAEESAAFEQVRASARGQNAKTAEGEVAQAGGGNRRKKKEKPAEAGEVQNPPAADGDSLLS
modifications: mutant D1 predicted amino acid sequence
With B2 the “bacterial stasis induced by expression” value (E. coli ER2566 [8]) was “clearly induced” and the “activity of expression clone” value (E. coli ER2566 [8]; berberine chloride (5 micrograms/ml), 20 h after induction) was “Active”.

B3: BombOrf9: Phage 13 ORF 9 from Xanthomonas campestris pv. pelargonii, SEQ ID No. 13 (protein, listed as Xanthomonas campestris)
chain: MVVVAQGTVPAKVHPQLTNLTALFADAVGLFLDVSDKVADLLVRFADVEAQGAELLLDLAHLAVPASVVHPTHAGQDQTVPAASDILHGVLEGQPVALVVNQRALRAAQLNPLLALRLDVEAVADQDAEGGAVAHAHAGDQLAVEQKLQILLERFGHDALAGHRRVEPIAYLVDVRSWEAGALDADQPRDDTADGDDAHAQRFVRHVERDGFGSGVLHPSQVRQRLAVLVDDFVEGSRVALDDRANHGEVGVDRVHQ
For B3, the “activity of expression clone” value (E. coli ER2566 [9]) was “Active” and the “relative strength of activity in E. coli” value (E. coli ER2566 [9]) was “Weak activity”.

B4: BombORF35PA: Phage PhiKMV ORF 35 from Pseudomonas aeruginosa, SEQ ID No. 9 (protein, listed as Pseudomonas aeruginosa)
chain: MAFWLPLLAAGGMSALQQGLANKEERNKIKAENKARLKTDLDNLGAAARDIANLGVMAASYRKQAVASQVEAKRQGMLAGGSAEAQAGAFGVKGASVDAVALDIEREVGEALIQIDDNLDNQMWNLAEQAHSIQAQAKAGLLGQKSTTAGQRSPLVAGLMSAGSLYASQYFKFGATPKGGN
In the case of B4, the “activity of expression clone” value (E. coli ER2566 [9]) is reported as “Active”.

B5: BombOrfL: Phage 15 ORF L from Xanthomonas campestris pv. pelargonii, SEQ ID No. 15 (protein, listed as Xanthomonas campestris)
chain: MPTVDATPGSITANSYVTVAEANSYFDGSYGRPLWTSASEDEKASLVISASRYLDQMMAWIGAPTNPEQSMWWPCKNAVIGGMTLSQVSIPVKVKIAVFELAYFMLESGAALSFADQTIDSVKVGTIRVEFTKNSTDAGLPTFVEAMLSGFGSPVLYGSNAARSIDLVRA
In the case of B5, the “activity of expression clone” value (E. coli ER2566 [9]) is reported as “Active”.

Source: patent US9181310B2 (priority 2003, dated 2015)
